Columns and labels:
Test in all cases: cell-based or functional assay
[1] = molecular target: HLA-A2/NY-ESO-1 (157-165) complex on cells (human)
[2] = molecular target: HLA-A2/NY-ESO-1 (157-165) complex on cells (human); remark: listed apart in the source
[3] = molecular target: single chain HLA-A2 presenting an NY-ESO-1 (157-165) peptide, overexpressed on IM9 cells

B1: TCR063 (TCR, V domains shown)
V domain 1: QKEVEQNSGPLSVPEGAIASLNCTYSDRGSQSFFWYRQYSGKSPELIMSIYSNGDKEDGRFTAQLNKASQYVSLLIRDSQPSDSATYLCAVNILASGGSYIPTFGRGTSLIVHP
V domain 2: ETGVTQTPRHLVMGMTNKKSLKCEQHLGHNAMYWYKQSAKKPLELMFVYNFKEQTENNSVPSRFSPECPNSSHLFLHLHTLQPEDSALYLCASSHGTGYNYGYTFGSGTRLTVV
- Signal to Noise (S/N) ratio (RLU to peptide pulsed APCs divided by RLU to non-pulsed APCs), AP-1 luciferase reporter T cells [1]: 11.2 ratio

B2: TCR050 (TCR, V domains shown)
V domain 1: DAKTTQPNSMESNEEEPVHLPCNHSTISGTDYIHWYRQLPSQGPEYVIHGLTSNVNNRMASLAIAEDRKSSTLILHRATLRDAAVYYCILREGNNDMRFGAGTRLTVKP
V domain 2: NAGVTQTPKFRILKIGQSMTLQCAQDMNHNYMYWYRQDPGMGLKLIYYSVGAGITDKGEVPNGYNVSRSTTEYFPLRLELAAPSQTSVYFCASSWTDNQPQHFGDGTRLSIL
- Signal to Noise (S/N) ratio (RLU to peptide pulsed APCs divided by RLU to non-pulsed APCs), AP-1 luciferase reporter T cells [1]: 15.5 ratio

B3: composite TCR 001 (human variable domains, mouse constant domains) (TCR, V domains shown)
V domain 1: DAKTTQPNSMESNEEEPVHLPCNHSTISGTDYIHWYRQLPSQGPEYVIHGLTSNVNNRMASLAIAEDRKSSTLILHRATLRDAAVYYCILRPDSWGKFQFGAGTQVVVTP
V domain 2: NAGVTQTPKFRILKIGQSMTLQCAQDMNHNYMYWYRQDPGMGLKLIYYSVGAGITDKGEVPNGYNVSRSTTEYFPLRLELAAPSQTSVYFCASSYSGGSPLHFGNGTRLTVTE
- percent cytotoxicity (calcein release), IM-9 target cells, T cell:target cell ratio 0.78, Mean [2]: 8.3%
- percent cytotoxicity (calcein release), IM-9 target cells, T cell:target cell ratio 1.56, Mean [2]: 16.2%
- percent cytotoxicity (calcein release), IM-9 target cells, T cell:target cell ratio 3.125, Mean [2]: 28.9%
- percent cytotoxicity (calcein release), IM-9 target cells, T cell:target cell ratio 6.25, Mean [2]: 44.4%
- percent cytotoxicity (calcein release), IM-9 target cells, T cell:target cell ratio 12.5, Mean [2]: 55.6%
- percent cytotoxicity (calcein release), IM-9 target cells, T cell:target cell ratio 25, Mean [2]: 65.4%
- percent cytotoxicity (calcein release), IM-9 target cells, T cell:target cell ratio 50, Mean [2]: 72.6%
- percent cytotoxicity (calcein release), IM-9++ target cells, T cell:target cell ratio 0.78, Mean [3]: 13.3%
- percent cytotoxicity (calcein release), IM-9++ target cells, T cell:target cell ratio 1.56, Mean [3]: 25.6%
- percent cytotoxicity (calcein release), IM-9++ target cells, T cell:target cell ratio 3.125, Mean [3]: 43.6%
- percent cytotoxicity (calcein release), IM-9++ target cells, T cell:target cell ratio 6.25, Mean [3]: 57.3%
- percent cytotoxicity (calcein release), IM-9++ target cells, T cell:target cell ratio 12.5, Mean [3]: 65.9%
- percent cytotoxicity (calcein release), IM-9++ target cells, T cell:target cell ratio 25, Mean [3]: 68.7%
- percent cytotoxicity (calcein release), IM-9++ target cells, T cell:target cell ratio 50, Mean [3]: 70%

B4: TCR001 (TCR, V domains shown)
V domain 1: DAKTTQPNSMESNEEEPVHLPCNHSTISGTDYIHWYRQLPSQGPEYVIHGLTSNVNNRMASLAIAEDRKSSTLILHRATLRDAAVYYCILRPDSWGKFQFGAGTQVVVTP
V domain 2: NAGVTQTPKFRILKIGQSMTLQCAQDMNHNYMYWYRQDPGMGLKLIYYSVGAGITDKGEVPNGYNVSRSTTEYFPLRLELAAPSQTSVYFCASSYSGGSPLHFGNGTRLTVT
- Signal to Noise (S/N) ratio (RLU to peptide pulsed APCs divided by RLU to non-pulsed APCs), AP-1 luciferase reporter T cells [1]: 25.4 ratio

B5: TCR188 (TCR, V domains shown)
V domain 1: DAKTTQPNSMESNEEEPVHLPCNHSTISGTDYIHWYRQLPSQGPEYVIHGLTSNVNNRMASLAIAEDRKSSTLILHRATLRDAAVYYCILNTGTASKLTFGTGTRLQVTL
V domain 2: GAVVSQHPSWVICKSGTSVKIECRSLDFQATTMFWYRQFPKQSLMLMATSNEGSKATYEQGVEKDKFLINHASLTLSTLTVTSAHPEDSSFYICSAKEGTEAFFGQGTRLTVV
- Signal to Noise (S/N) ratio (RLU to peptide pulsed APCs divided by RLU to non-pulsed APCs), AP-1 luciferase reporter T cells [1]: 5.1 ratio

From patent US20210403527A1 (Regeneron, published 2021)
